The values below come from publication PMC4847008.

In the assay the target is MT1-MMPmCh ΔDKV (UniProt P50281).

With “LIM Kinase-1 (from UniProt P53667 1-647) (natural protein)”, the tyrosine phosphorylation (4G10 blot) of precipitated MT1-MMPmCh by recombinant GST-LIMK1 in an in vitro kinase assay, ΔDKV against WT was found to be 60 % decrease.
